How the values were obtained:
[1] = molecular target: T1, cytochrome b562 with C-terminally fused Strep-tagII (E. coli); assay: SPR Biacore T100, mutein immobilised at 4350 RU, 1:1 global fit
T1 construct: also called Cytb562-StrepII; Cytb562-StrepIII
Protocol: (§1) To achieve the immobilization at higher density, mutein m1-9 was used at a concentration of 20 μg/ml and mutein “1” was used at a concentration of 50 μg/ml. […] Prior to analysis, the fusion protein preparations were dialyzed against Buffer W (100 mM Tris-CI pH8, 150 mM NaCl, 1 mM EDTA), and checked via analytical size exclusion chromatography to be essentially free of aggregates (a content of max. 5% was accepted, in most cases it was below 1%) to ensure to measure the interaction of monovalent fusion proteins with immobilized streptavidin muteins only. […] Data were fitted using the kinetic global fit (Langmuir 1:1) and resulting on- and off-rates and deduced dissociation constants are shown in column 4, column 5 and column 6, respectively. BiaCore data were measured by Biaffin GmbH & Co KG, Kassel, Germany.

[2] = molecular target: T2, Green Fluorescent Protein with C-terminal di-tag3; assay: as above
T2 construct: also called GFP-di-tag3
Protocol: as §1

[3] = molecular target: T3, Green Fluorescent Protein with C-terminal Strep-tagII (Aequorea victoria (Water jellyfish) …, UniProt P42212 1-237 = GFP, limits assumed); assay: as above
T3 construct: also called GFP-StrepII; GFP-StrepIII
Protocol: as §1

[4] = molecular target: T4, cytochrome b562 with C-terminal di-tag3 (E. coli); assay: as above
T4 construct: also called Cytb562-di-tag3
Protocol: as §1

[5] = molecular target: T5, E. coli alkaline phosphatase Strep-tag®II fusion protein (E. coli, UniProt P00634 22-471 = phosphatase); assay: ELISA, second experiment, mutein coated, BAP-StrepII titrated
T5 construct: mature; also called BAP-StrepII; BAP-StrepIII

[6] = molecular target: T1, cytochrome b562 with C-terminally fused …; assay: SPR Biacore T100, mutein immobilised at 170 RU, 1:1 global fit
Protocol: as §1

[7] = molecular target: T2, Green Fluorescent Protein with …; assay: as above
Protocol: as §1

[8] = molecular target: T3, Green Fluorescent Protein with …; assay: as above
Protocol: as §1

[9] = molecular target: T4, cytochrome b562 with C-terminal di-tag3; assay: as above
Protocol: as §1

[10] = molecular target: T1, cytochrome b562 with C-terminally fused …; assay: SPR Biacore
Protocol: (§2) The resulting relative immobilized amounts are given in RU (arbitrary units) (column 3). To achieve the low density immobilization both muteins were applied applied at a concentration of 1 μg/ml and a flow rate of 10 μl/min. To achieve the immobilization at higher density, mutein m1-9 was used at a concentration of 20 μg/ml and mutein “1” was used at a concentration of 50 μg/ml. […] Prior to analysis, the fusion protein preparations were dialyzed against Buffer W (100 mM Tris-CI pH8, 150 mM NaCl, 1 mM EDTA), and checked via analytical size exclusion chromatography to be essentially free of aggregates (a content of max. 5% was accepted, in most cases it was below 1%) to ensure to measure the interaction of monovalent fusion proteins with immobilized streptavidin muteins only.

[11] = molecular target: T3, Green Fluorescent Protein with …; assay: SPR Biacore
Protocol: as §2

B1: mutein m1-9 (designed binder)
chain: EAGITGTWYNQLGSTFIVTAGADGALTGTYVTARGNAESRYVLTGRYDSAPATDGSGTALGWTVAWKNNYRNAHSATTWSGQYVGGAEARINTQWLLTSGTTEENAGYSTLVGHDTFTKVKPSAAS
Kd [1]: 485 nM
koff [1]: 0.025 s⁻¹
kon [1]: 52000 M⁻¹ s⁻¹
Kd [2]: 0.079 nM
koff [2]: 1.7e-05 s⁻¹
kon [2]: 220000 M⁻¹ s⁻¹
Kd [3]: 23 nM
koff [3]: 0.0038 s⁻¹
kon [3]: 170000 M⁻¹ s⁻¹
Kd [4]: 0.043 nM
koff [4]: 1.9e-05 s⁻¹
kon [4]: 440000 M⁻¹ s⁻¹
(Δ(A405-A595)/Δt)max [5]: 1700 mOD
Kd [5]: 25 nM
Kd [6]: 586 nM
koff [6]: 0.041 s⁻¹
kon [6]: 70000 M⁻¹ s⁻¹
Kd [7]: 0.053 nM
koff [7]: 1.5e-05 s⁻¹
kon [7]: 280000 M⁻¹ s⁻¹
Kd [8]: 32 nM
koff [8]: 0.0047 s⁻¹
kon [8]: 150000 M⁻¹ s⁻¹
Kd [9]: 0.014 nM
koff [9]: 1.5e-05 s⁻¹
kon [9]: 1e+06 M⁻¹ s⁻¹
affinity increase relative to mutein “1” [10]: ~30 fold
affinity increase relative to mutein “1” [11]: ~10 fold
